Measured values as given in the nanobody polyreactivity screen of Harvey et al. (2022).

experiment: yeast display, Sf9 membrane polyspecificity reagent, FACS + sequencing; frameworks hold sequencing errors
Method in brief: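 Using colony PCR, genes from sorted yeast display clones were amplified, then sequenced on MiSeq at 2 × 250 and filtered by CDR length. The clones had been stained with 10% biotinylated, detergent-solubilized Sf9 membrane reagent for 1 hour at 4 °C and sorted by FACS into low and high (top ~1%) gates on anti-HA and streptavidin fluorescence. Polyreactivity labels come from the gate of origin.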

| Sequence | polyreactivity (PSR sort gate) |
| --- | --- |
| QVQLVESGGGLVQAGGSLRLSCAASGGTFLYYMGWYRQAPGKEMELVAAITFSGGSTYYADSVKGRFTISRDNAKNTVYLQMNSLKPEDTAVYYCAAGWYDWPKYLLSVYTYYLYDSWGQGTQVTVSS | low polyreactivity |
| QVQLVESGGGLVQAGGSLRLSCAASGGTFNGYALGWYRQAPGKERELVAAITSGGGSTYADSVKGRFTISRDNAKNTVYLQMNSLKPEDTAVYYCNADQWDEWFWDYDYWGQGTQVTVSS | low polyreactivity |
| QVQLVESGGGLVQAGGSLRLSCAASGGTFPFNAMGRYRQAPGKEREFVAAISFRGGSTYYADSVKGRFTISRDNAKNTVYLQMNSLKPEDTAVYSCAAYRLRPRNGVYRMDYWGQGTQVTVSS | high polyreactivity |
| QVQLVESGGGLVQAGGSLRLSCAASGGTFPGYTMGWNRQAPGKERELVAAISGSGVSTYYADSVKGRFTISRDNAKNTVYLQMNSLKPEDTAVYYCARTYRSYSRYPFVRFDYWGQGTQVTVSS | high polyreactivity |
| QVQLVESGGGLVQAGGSLRLSCAASGGTFPSYAMGWYRQAPGKERELVAAISWSGGRTYYADSVKGRFTISRDNAKNTVYLQMNSLKPEDTAVYYCNADDYGYSFNYWGQGTQVTVSS | high polyreactivity |
| QVQLVESGGGLVQAGGSLRLSCAASGGTFPYNAMGGYRQAPGKERELVAVITSGDGTYYADSVKGRFTISRDNAKNTVYLQMNSLKPEDTAVYYCAADYVVWFSFVYVVEYDYWGQGTQVTVSS | low polyreactivity |
| QVQLVESGGGLVQAGGSLRLSCAASGGTFPYSAMGWYRQAPGKERELVAAISRSGARTYYADSVKGRFTISRDNAKNTVYLQMNSLKPEDTAVYYCATDNTYGYDYWGQGTQVTVSS | high polyreactivity |
| QVQLVESGGGLVQAGGSLRLSCAASGGTFQLNAMGWYRQAPGKERELVATITTGGSTYADSVKGRFTISRDNAKNTVYLQMNSLKPEDTAVYYCNKTCFLVKLDYWGQGTQVTVSS | low polyreactivity |
| QVQLVESGGGLVQAGGSLRLSCAASGGTFQRYVMGWYRQAPGKERELVAAISRSGSTYADSVKGRFTISRDNAKNTVYLQMKSLKPEDTAVYYCNVVSYYRYYLHGYDYWGQGTQVTVSS | high polyreactivity |
| QVQLVESGGGLVQAGGSLRLSCAASGGTFQYHAMGWYRQAPGKERELVAAITRSGGSTYYADSVKGRFTISRDNAKNTVYLQMNSLKPEDTAVYYCAVRYVYGYPRYNYWGQGTQVTVSS | high polyreactivity |
| QVQLVESGGGLVQAGGSLRLSCAASGGTFRNNAMGWYRQAPGKERELVAAISWSGGRTYYADSVKGRFTISRDNAKNTVYLQMNSLKPEDTAVYYCAASYSGRQDRYPHYDYWGQGTQVTVSS | low polyreactivity |
| QVQLVESGGGLVQAGGSLRLSCAASGGTFRPNAMGLYRQAPGKERELVAAISYTGSTYYADSVKGRFTISRDNAKYTVYLQMNSMKPEDTAVYYCAAYGYHRYYLYDYWGQGTQVTVSS | low polyreactivity |
| QVQLVESGGGLVQAGGSLRLSCAASGGTFRYYALGWYRQAPGKERALVAAISSGGSTNYADSVKGRFTISRDNAKNTVYLQMNSLKPEDTAVYYCAADVIYYYAYYTYDYWGQGTQVTVSS | low polyreactivity |
| QVQLVESGGGLVQAGGSLRLSCAASGGTFSFNAMGWSRQAPGKERELVATISWDGGSTYYADSVKGRFTISRDNAKNTVYLQMYSLKPEDTAVYYCNKYVFDRYIYETEYDYWGQGTQVTVSS | high polyreactivity |
| QVQLVESGGGLVQAGGSLRLSCAASGGTFSFYTMVWYRQAPGKERELVAAIDSTGRTNYADSVKGRFTISRDNAKNTVYLQMNSLKPEDTAVYYCAAGPPRADYDYWGQGTQVTVSS | low polyreactivity |
| QVQLVESGGGLVQAGGSLRLSCAASGGTFSNNAMGWYRQAPGKERELVAAISNSGGRTYYADSVKGRFTISRDNAKNTVYLQMNSLKPEDTAVYYCNVRRGYWHPGYGWANYDYWGQGTQVTVSS | high polyreactivity |
| QVQLVESGGGLVQAGGSLRLSCAASGGTFSPNTMGWYRQAPGKERELVAAISSSGSTSYADSVKGRFTISRDNAKNTVYLQMNSLKPEDTAVYYCNADDTISYYASGFDNYHYWGQGTQVTVSS | low polyreactivity |
